Earlier results, collected in US7202065B2, “Stabilized liquid preparation of the protease which activates blood coagulation factor VII, or of its proenzyme” (ZLB Behring GmbH, priority 2001, dated 2007).

Conditions: solution containing 20 mM Tris, 0.15 mM NaCI at a pH of 7.5

For “proenzyme: proenzyme, which is the non-activated form of the protease which activates blood coagulation factor VII”, the “loss of activity after enrichment or isolation” value is listed as “rapid loss of activity”.
